From paper PMC6135743

What was measured:
[1] = target: B41 SOSIP.664 soluble Env trimer (HIV-1 strain B41 (subtype B)); experiment: native gel or EMSA
[2] = target: B41 viral Env trimer from infectious virus (HIV-1 strain B41 (subtype B)); experiment: native gel or EMSA
[3] = target: B41 ΔCT membrane-bound Env trimer (HIV-1 strain B41 (subtype B)); experiment: native gel or EMSA
[4] = target: BG505 N332 SOSIP.664 soluble Env trimer (HIV-1 strain BG505 (subtype A)); experiment: native gel or EMSA
[5] = target: BG505 viral Env trimer from infectious virus (HIV-1 strain BG505 (subtype A)); experiment: native gel or EMSA
[6] = target: BG505 ΔCT N332 membrane-bound Env trimer (HIV-1 strain BG505 (subtype A)); experiment: native gel or EMSA
[7] = target: BG505 ΔCT T332 membrane-bound Env trimer (HIV-1 strain BG505 (subtype A)); experiment: native gel or EMSA
[8] = target: JR-FL E168K SOSIP.664 soluble Env trimer (HIV-1 strain JR-FL (subtype B)) (UniProt Q75760); experiment: native gel or EMSA
[9] = target: JR-FL viral Env trimer from infectious virus (HIV-1 strain JR-FL (subtype B)); experiment: native gel or EMSA
[10] = target: JR-FL ΔCT membrane-bound Env trimer (HIV-1 strain JR-FL (subtype B)) (UniProt Q75760); experiment: native gel or EMSA
[11] = target: BG505 ΔCT T332 membrane-bound Env trimer (HIV-1 strain BG505 (subtype A)); experiment: cryo-EM structure
[12] = target: B41 viral Env trimer from infectious virus (HIV-1 strain B41 (subtype B))

B41 SOSIP.664 soluble Env trimer (complex)
stoichiometry N [1]: 3

B41 viral Env trimer from infectious virus (complex)
stoichiometry N [2]: 3

B41 ΔCT membrane-bound Env trimer (complex)
stoichiometry N [3]: 3

BG505 N332 SOSIP.664 soluble Env trimer (complex)
stoichiometry N [4]: 3

BG505 viral Env trimer from infectious virus (complex)
stoichiometry N [5]: 3

BG505 ΔCT N332 membrane-bound Env trimer (complex)
stoichiometry N [6]: 3

BG505 ΔCT T332 membrane-bound Env trimer (complex)
stoichiometry N [7]: 3

JR-FL E168K SOSIP.664 soluble Env trimer (from UniProt Q75760 1-847) (complex)
stoichiometry N [8]: 3

JR-FL viral Env trimer from infectious virus (complex)
stoichiometry N [9]: 3

JR-FL ΔCT membrane-bound Env trimer (from UniProt Q75760 1-847) (complex)
stoichiometry N [10]: 3

PGT151 Fab
stoichiometry N (Fabs per trimer) [11]: < 2

B1: PGT151 monoclonal antibody (bnAb) (antibody, V domains shown)
VH: RVQLVESGGGVVQPGKSVRLSCVVSDFPFSKYPMYWVRQAPGKGLEWVAAISGDAWHVVYSNSVQGRFLVSRDNVKNTLYLEMNSLKIEDTAVYRCARMFQESGPPRLDRWSGRNYYYYSGMDVWGQGTTVTVSS
VL: DIVMTQTPLSLSVTPGQPASISCKSSESLRQSNGKTSLYWYRQKPGQSPQLLVFEVSNRFSGVSDRFVGSGSGTDFTLRISRVEAEDVGFYYCMQSKDFPLTFGGGTKVDLK
neutralisation of B41 virus, maximal percent (Supplementary Figure 5) [12]: < 75%
